Columns and labels:
[1] = test system: SW620 cells; experiment: Chemical inhibition of Notch signaling: E-cadherin staining of β2 ECD-treated SW620 cells; type: cell-based, human
Description: Vimentin and actin cytoskeleton (rhodamine-phalloidin): cells were fixed in 4% paraformaldehyde for 20 minutes at room temperature and permeabilzed with 0.05% saponin for 5 minutes at room temperature. For β2, REST, cleaved-Notch1 NICD and E-cadherin staining: cells were fixed in methanol at 4° C. for 2 minutes. Primary antibody incubation was at room temperature for 1 hour (for vimentin staining), or for 15 minutes (for rhodamine-phalloidin staining) or at 37° C. for 1 hour (for β2, REST, cleaved-Notch1 NICD and E-cadherin staining). Secondary antibody incubation was at room temperature for 30 minutes. […]
Images were converted from Photoshop format to Tif in Photoshop CS2 (version 9.0.2, Adobe; San Jose, Calif.). […] Typically, 5 independent regions were analyzed and combined for each analysis.
Activation of Notch signaling requires cleavage of the receptor by both an ADAM protease and gamma-secretase to release the Notch intracellular domain (NICD). […] SW620 cells were mixed with DMSO (vehicle control) or the specific gamma-secretase inhibitor DAPT (N—[N-(3,5-difluorophenylacetyl-L-alanine)]-S-phenylglycine t-butylester) at 500 nM in DMSO, treated with β2 ECD in conditioned media, and analyzed for loss of E-cadherin. […]

[2] = test system: SW620 cells; experiment: Stimulation of SW620 cells with Notch ligands (co-culture or plate-bound) for EMT induction; type: cell-based, human; details: exogenous ligand in trans by co-culture or plate-bound; data not shown
[3] = target: T1, Notch1 ECD fragment containing EGF repeats 10-21 (Homo sapiens, UniProt P46531); experiment: Direct binding of β2 ECD and Notch1 ECD fragment EGF 10-21; details: α-FLAG immunoblot
T1 construct: purified fragments of the Notch1 ECD, containing either EGF repeats 10-21 or 22-33; FLAG (C)
T1 sequence (P46531 372-827 limits assumed): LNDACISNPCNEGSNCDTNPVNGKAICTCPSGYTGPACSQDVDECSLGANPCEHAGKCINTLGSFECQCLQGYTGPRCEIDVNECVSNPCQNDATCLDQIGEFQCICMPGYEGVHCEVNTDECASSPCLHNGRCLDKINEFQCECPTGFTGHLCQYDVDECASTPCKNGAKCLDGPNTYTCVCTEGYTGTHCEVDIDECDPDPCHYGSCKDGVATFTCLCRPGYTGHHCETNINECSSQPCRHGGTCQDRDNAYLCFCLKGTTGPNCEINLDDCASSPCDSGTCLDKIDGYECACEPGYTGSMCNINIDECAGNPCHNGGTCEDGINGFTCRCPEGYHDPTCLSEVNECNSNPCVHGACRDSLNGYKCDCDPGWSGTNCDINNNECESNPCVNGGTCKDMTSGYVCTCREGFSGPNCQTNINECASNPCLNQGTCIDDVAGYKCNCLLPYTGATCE

[4] = test system: SW620 cells; experiment: Migration assay of SW620 cells treated with β2 ECD; type: cell-based, human; details: β2 ECD in conditioned media, 0.1% FBS, 18 hours; p=0.0009
Description: Migration assays were performed using the HTS FluoroBlock Multiwell insert system with […] (BD Biosciences, Bedford, Mass.). 10^5 cells/well were seeded into the upper wells and FBS was added to the bottom wells. After 18 hr, cells that migrated to the other side of the trans-well membrane were stained in 10 um YO-PRO-1 iodide (Invitrogen, Eugene, Oreg.) and quantitated using the fluorescence plate reader Spectra Max GeminiEM (Molecular Devices, Sunnyvale, Calif.).

[5] = target: T2, Notch1 ECD fragment containing EGF repeats 22-33 (Homo sapiens, UniProt P46531); experiment: Direct binding of β2 ECD and Notch1 ECD fragment EGF 22-33; details: α-FLAG immunoblot
T2 construct: purified fragments of the Notch1 ECD, containing either EGF repeats 10-21 or 22-33; FLAG (C)
T2 sequence (P46531 829-1305): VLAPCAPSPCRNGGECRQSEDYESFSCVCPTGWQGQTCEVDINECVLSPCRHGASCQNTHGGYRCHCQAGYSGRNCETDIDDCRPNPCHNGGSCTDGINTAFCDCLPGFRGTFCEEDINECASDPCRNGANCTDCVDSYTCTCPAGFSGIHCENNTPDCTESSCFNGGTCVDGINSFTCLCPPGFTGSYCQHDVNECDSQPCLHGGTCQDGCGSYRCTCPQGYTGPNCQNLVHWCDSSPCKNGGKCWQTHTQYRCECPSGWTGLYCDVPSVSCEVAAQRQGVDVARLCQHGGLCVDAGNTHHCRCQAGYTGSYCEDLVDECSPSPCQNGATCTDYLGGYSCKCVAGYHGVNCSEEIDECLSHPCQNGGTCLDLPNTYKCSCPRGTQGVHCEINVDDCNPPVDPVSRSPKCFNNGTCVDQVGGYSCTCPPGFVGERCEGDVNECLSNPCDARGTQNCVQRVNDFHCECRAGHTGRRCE

[6] = test system: Notch1 NICD; experiment: Translocation of Notch1 NICD to nucleus (confocal immunofluorescence); type: cell-based, human; details: SW620 cells 6 hours after treatment with β2 ECD in conditioned media; 100 um Lactacystin
Description: (§1) Vimentin and actin cytoskeleton (rhodamine-phalloidin): cells were fixed in 4% paraformaldehyde for 20 minutes at room temperature and permeabilzed with 0.05% saponin for 5 minutes at room temperature. For β2, REST, cleaved-Notch1 NICD and E-cadherin staining: cells were fixed in methanol at 4° C. for 2 minutes. Primary antibody incubation was at room temperature for 1 hour (for vimentin staining), or for 15 minutes (for rhodamine-phalloidin staining) or at 37° C. for 1 hour (for β2, REST, cleaved-Notch1 NICD and E-cadherin staining). Secondary antibody incubation was at room temperature for 30 minutes. Antibodies used were as following: α-ankyrin monoclonal antibody (Chemincon International, Temecula, Calif.); α-vimentin monoclonal antibody (Sigma-Aldrich, St. Louis, Mo.); rhodamine-phalloidin (Molecular Probes, Eugene, Oreg.), α-REST polyclonal antibody (Upstate, Lake Placid, N.Y.), α-E-cadherin monoclonal antibody (Invitrogen, Carlsbad, Calif.), α-Notch1 (Val1744 peptide, detects both intact and cleaved Notch1 NICD) (Cell Signaling, Danvers, Mass.) or α-β2 monoclonal antibody (Genentech, Inc.). […]
Activation of Notch1 by ligands results in cleavage to release the NICD, which translocates to the nucleus, and in concert with other proteins, directly regulates Notch target gene transcription. We analyzed whether nuclear NICD could be detected in cells in response to β2. […]

[7] = test system: Twist1 and HES1 transcript; experiment: Transcript expression (microarray, RT-PCR) in SW620 cells treated with β2 ECD; type: cell-based, human
Description: HES1 and Twist1 transcript expression from 0-72 hours in SW620 cells treated β2 ECD in conditioned medium. RNA was extracted from cells at 0, 6, 18, 24, 48, and 72 hour timepoints and microarray analysis performed on Agilent Whole Human Genome microarrays versus a universal reference RNA. Log ratio (Y-axis) is plotted against time in hours (X-axis). Transcript data for 2 independent HES1 oligonucleotide probe sequences and for Twist1 are shown.
RT-PCR analysis of Twist1 transcript expression at 0, 6, and 18 hr timepoints in SW620 cells treated with β2 ECD. Twist1 expression was normalized to housekeeping gene RPL19.

[8] = test system: naïve CHO cells, MDCK cells, HUVEC (endothelial), or tumor cell lines NCI-H226, SW620, SW480, and PC-3; experiment: β2 ECD induced phenotype assay (actin cytoskeleton, morphology); type: cell-based; details: conditioned media containing β2 ECD, 48-72 hours
Description: as §1, with “Inc.). Secondary antibodies were as follows: Cy3-conjugated rabbit α-mouse IgG or Cy3-conjugated donkey α-rabbit IgG (Jackson Lab, Bar Harbor, Me.). Slides were mounted with Vectashield mounting media with DAPI (4′,6-diamidino-2-phenylindole) (Vector Lab, Burlingame, Calif.).” for “Inc.).”

[9] = test system: SW620 cells; experiment: E-cadherin and vimentin staining of SW620 cells treated with β2 ECD; type: cell-based, human
Description: as §1, with “Inc.). Secondary antibodies were as follows: Cy3-conjugated rabbit α-mouse IgG or Cy3-conjugated donkey α-rabbit IgG (Jackson Lab, Bar Harbor, Me.). Slides were mounted with Vectashield mounting media with DAPI (4′,6-diamidino-2-phenylindole) (Vector Lab, Burlingame, Calif.).” for “Inc.).”

[10] = test system: HEK293 cells; experiment: β2 ECD induced phenotype assay in HEK293; type: cell-based; details: HEK293, do not express Notch1; FIG. 11A
Description: as §1, with “Inc.). Secondary antibodies were as follows: Cy3-conjugated rabbit α-mouse IgG or Cy3-conjugated donkey α-rabbit IgG (Jackson Lab, Bar Harbor, Me.). Slides were mounted with Vectashield mounting media with DAPI (4′,6-diamidino-2-phenylindole) (Vector Lab, Burlingame, Calif.).” for “Inc.).”

[11] = test system: CHO cells; experiment: Methotrexate resistance in CHO cells (trypan blue); type: cell-based, Chinese Hamster; details: 200 nM methotrexate for 48 hours; 60% of control-treated cells died; p=0.01
Description: Resistance to starvation: SW620 cells were seeded into 6 well plates at 25% confluence in complete media overnight. This media was replaced the next morning with media lacking FBS. For the assay, cells were detached using trypsin, washed, and stained in 0.4% Trypan Blue (Invitrogen, Carlsbad, Calif.). Total cells and dead cells were counted using a hemocytometer. Assays were performed in triplicate. Doxorubicin resistance: 2×10^4 SW620 cells were seeded in 96 well clear bottom black plates (Corning Inc., Corning, N.Y.) with serial dilutions of doxorubicin hydrochloride (Sigma-Aldrich, St. Louis, Mo.) and incubated for 5 days. Cell viability was measured by using Cell Titer Glo Luminescent Cell Viability Kit (Promega, Madison, Wis.). Luminescence was quantified using an Envision 2103 multilabel reader (PerkinElmer, Finland). Methotrexate resistance: 5×10^5 CHO cells were seeded in 6-well plates with β2 ECD in conditioned medium or control conditioned medium containing 200 nm methotrexate (Genentech Inc.). Cells were detached from the plate and stained with Trypan Blue 0.4% (Invitrogen, Carlsbad, Calif.) as described.

[12] = target: T3, Notch1 ECD (EGF repeats 6-36) (Homo sapiens, UniProt P46531); experiment: Direct binding of β2 ECD and Notch1 ECD (Ni-NTA pull-down, immunoblot); details: approximately 1 nM Notch1 ECD and 20 nM β2 ECD; vs control conditioned media with irrelevant histidine-tagged protein
T3 construct: Notch1 ECD region containing the majority of the EGF repeat region (repeats 6-36); FLAG (C)
T3 sequence (P46531 218-1426 limits assumed): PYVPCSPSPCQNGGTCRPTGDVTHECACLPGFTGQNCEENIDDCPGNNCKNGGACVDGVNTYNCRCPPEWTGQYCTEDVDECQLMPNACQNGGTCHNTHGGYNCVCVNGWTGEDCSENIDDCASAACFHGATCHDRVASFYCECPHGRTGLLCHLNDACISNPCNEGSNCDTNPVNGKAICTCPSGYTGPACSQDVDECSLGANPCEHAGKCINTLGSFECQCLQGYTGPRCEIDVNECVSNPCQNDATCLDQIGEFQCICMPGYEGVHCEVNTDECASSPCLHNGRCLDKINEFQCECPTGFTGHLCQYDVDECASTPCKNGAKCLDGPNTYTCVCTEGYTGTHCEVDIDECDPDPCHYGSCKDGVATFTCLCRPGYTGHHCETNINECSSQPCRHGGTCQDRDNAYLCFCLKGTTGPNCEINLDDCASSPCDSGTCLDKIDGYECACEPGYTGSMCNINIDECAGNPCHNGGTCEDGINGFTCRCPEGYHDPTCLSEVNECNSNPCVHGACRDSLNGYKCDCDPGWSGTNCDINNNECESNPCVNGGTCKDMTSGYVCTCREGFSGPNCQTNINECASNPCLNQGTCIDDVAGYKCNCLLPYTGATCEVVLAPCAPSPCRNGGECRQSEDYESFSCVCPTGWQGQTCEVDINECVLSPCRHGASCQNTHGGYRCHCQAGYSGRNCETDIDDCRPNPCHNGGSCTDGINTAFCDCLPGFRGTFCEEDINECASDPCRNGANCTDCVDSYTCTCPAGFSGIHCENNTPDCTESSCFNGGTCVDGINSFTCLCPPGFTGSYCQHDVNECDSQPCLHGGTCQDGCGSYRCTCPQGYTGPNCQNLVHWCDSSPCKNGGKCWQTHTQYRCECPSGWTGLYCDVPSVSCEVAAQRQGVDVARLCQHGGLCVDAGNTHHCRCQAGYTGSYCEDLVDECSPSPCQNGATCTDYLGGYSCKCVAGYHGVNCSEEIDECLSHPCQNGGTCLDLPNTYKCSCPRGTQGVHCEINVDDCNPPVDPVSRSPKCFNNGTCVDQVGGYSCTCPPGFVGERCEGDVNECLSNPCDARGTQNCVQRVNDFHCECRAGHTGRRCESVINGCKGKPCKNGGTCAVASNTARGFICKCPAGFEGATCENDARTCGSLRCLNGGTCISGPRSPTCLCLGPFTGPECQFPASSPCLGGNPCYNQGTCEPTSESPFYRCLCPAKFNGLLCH
Description: Immunoprecipitation: cells were removed from culture plates using 5 mm EDTA and lysed in TBS buffer containing 0.5% NP-40, EDTA-free protease inhibitor (Roche Diagnostics, Indianapolis, Ind.) and 1 mm PMSF. The cell lysate was incubated with pre-saturated protein G-agarose (Roche Diagnostics, Indianapolis, Ind.) at 4° C. for 1.5 hour followed by incubation with α-β2 monoclonal antibody at 4° C. for 2 hours. This cell lysate and antibody mixture was then incubated with pre-saturated protein G-agarose at 4° C. overnight. The agarose was collected and proteins were eluted in Tris-Glycine gel loading buffer (Invitrogen, Carlsbad, Calif.) for immunoblot analysis. Direct binding: conditioned media was collected as described above, incubated with FLAG-tagged Notch1 ECD:6-36 (5 μg) in 15 ml for 2 hours at room temperature with shaking 50 μl of Ni-NTA agarose bead slurry (Qiagen) was added with incubation for 2 hours at room temperature with shaking. Ni-NTA beads were collected by centrifugation and washed 3 times with PBS. Alternatively, conditioned media was treated with Ni-NTA beads to enrich for β2 and the resulting slurry incubated with Notch1 ECD:6-36 (5 μg) in 1 ml PBS and incubated and washed as described. Samples were eluted into 2× loading buffer. […]

With `C[C@H](NC(=O)Cc1cc(F)cc(F)c1)C(=O)NC(C(=O)OC(C)(C)C)c1ccccc1` (stereo partly drawn) [DAPT, N—[N-(3,5-difluorophenylacetyl-L-alanine)]-S-phenylglycine t-butylester] the E-cadherin staining ([1]; DAPT 500 nM in DMSO, SW620 cells treated with β2 ECD in conditioned media) was “remained E-cadherin positive” and the “E-cadherin levels, quantitative analysis of staining” value ([1]; DAPT-treated vs DMSO, β2-ECD treated cells, p=0.00001) was “significantly different”.

“Jagged1: Notch ligand of the Jagged family, added exogenously (co-culture or plate-bound)” was tested, and the “Induction of EMT or related morphological change” value [2] was “no evidence of induction of EMT or related morphological change”.

B1: β2 ECD: C-terminal polyhistidine-tagged (HIS8) extracellular domain of β2 (SCN2B) secreted from CHO cells, used in conditioned media (protein)
chain: MEVTVPATLNVLNGSDARLPCTFNSCYTVNHKQFSLNWTYQECNNCSEEMFLQFRMKIINLKLERFQDRVEFSGNPSKYDVSVMLRNVQPEDEGIYNCYIMNPPDRHRGHGKIHLQVLMEEPPERDSTVAHHHHHHHH
B1 was tested, and the “Binding to Notch1 ECD fragment EGF repeats 10-21” value [3] was “specifically bound”, the “Migration of SW620 cells across transwell membrane” value [4] was “significant increase in migration” and the “Binding to Notch1 ECD fragment EGF repeats 22-33” value [5] was “no detectable binding”. For the same molecule, the “Nuclear Notch1 NICD staining” value [6] was “nuclear NICD was detected”, the Twist1 transcript expression ([7]; 6 hours after treatment with β2 ECD, oscillating at subsequent timepoints) was “induction of Twist1 transcript” and the HES1 transcript expression ([7]; at 6 hours after β2 ECD in conditioned media) was “elevated HES1 transcript”. For the same molecule, the “Phenotypic changes (elongation, enlargement, actin cytoskeleton remodeling)” value [8] was “capable of inducing phenotypic changes”, the “E-cadherin protein levels (immunofluoresence and FACS)” value ([9]; β2 ECD in conditioned media for 48 hours) was “greatly reduced E-cadherin protein levels” and the “Vimentin protein expression (immunofluorescent staining)” value ([9]; β2 ECD in conditioned media, from otherwise undetectable levels) was “substantial increase in vimentin protein expression”. For the same molecule, the “Phenotypic change in response to β2” value [10] was “no phenotypic change”, the “Cell death as percentage of total cells” value [11] was 10% and the “Binding to FLAG-tagged Notch1 ECD (repeats 6-36)” value [12] was “recovery of tagged Notch1”.

Reference: US8563695B2, “Antibodies that bind β2” (Genentech, Inc., priority 2007, dated 2013)
